We go through 2 molecules from US20220128561A1 (Bayer, published 2022).

Experiment [1] concerns the target rat apo-sGC (H105F) (rat) (UniProt P19686). Kind of experiment: SPR. A general note: Surface plasmon resonance follows binding to a sensor surface in real time, without labels.
Experiment [2] concerns the target Human apo-sGC (H105F) (human) (UniProt Q02108). Kind of experiment: SPR.
In experiment [3] the target is rat apo-sGC (H105F) (rat) (UniProt P19686). The experiment can be described thus: capture ELISA: IgG coated at 5 ug/mL, rat apo-sGC (H105F) titrated, streptavidin-HRP, OD 450 nm; the axis gives the sGC concentration.
Experiment [4] concerns the target T1, WT rat sGC heme free (tween treated) (rat, UniProt P19686 1-690; P20595 1-619).
T1 construct: alpha1-StrepII/beta1 heterodimer made in Sf9 cells and purified; The heme was removed with 0.5% Tween20 for 20 min at 37 C; It has the same polypeptides as the heme-loaded form and differs only in lacking the heme; also called heme free sGC (as obtained by tween treatment); heme free version of wt rat sGC; not shown: C-terminal strep-tag (StrepII)
T1 sequence (looked up) 1: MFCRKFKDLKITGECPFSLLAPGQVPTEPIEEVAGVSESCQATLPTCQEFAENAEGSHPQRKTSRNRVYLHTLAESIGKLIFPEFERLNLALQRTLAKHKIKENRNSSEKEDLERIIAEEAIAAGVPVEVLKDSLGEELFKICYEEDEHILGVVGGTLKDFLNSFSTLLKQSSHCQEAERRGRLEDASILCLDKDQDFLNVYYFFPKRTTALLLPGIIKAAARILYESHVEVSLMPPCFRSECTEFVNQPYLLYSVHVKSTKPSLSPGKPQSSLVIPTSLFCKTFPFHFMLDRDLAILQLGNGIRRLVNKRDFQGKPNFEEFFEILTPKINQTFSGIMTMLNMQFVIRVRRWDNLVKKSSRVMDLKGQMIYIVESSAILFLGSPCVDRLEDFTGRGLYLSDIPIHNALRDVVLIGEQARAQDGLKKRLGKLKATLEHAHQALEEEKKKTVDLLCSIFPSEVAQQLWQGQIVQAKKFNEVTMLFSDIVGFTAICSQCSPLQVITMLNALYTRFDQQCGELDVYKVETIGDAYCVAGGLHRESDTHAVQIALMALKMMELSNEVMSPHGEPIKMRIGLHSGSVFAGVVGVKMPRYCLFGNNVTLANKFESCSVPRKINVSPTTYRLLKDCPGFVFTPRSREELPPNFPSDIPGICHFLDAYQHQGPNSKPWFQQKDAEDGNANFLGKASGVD
T1 sequence (looked up) 2: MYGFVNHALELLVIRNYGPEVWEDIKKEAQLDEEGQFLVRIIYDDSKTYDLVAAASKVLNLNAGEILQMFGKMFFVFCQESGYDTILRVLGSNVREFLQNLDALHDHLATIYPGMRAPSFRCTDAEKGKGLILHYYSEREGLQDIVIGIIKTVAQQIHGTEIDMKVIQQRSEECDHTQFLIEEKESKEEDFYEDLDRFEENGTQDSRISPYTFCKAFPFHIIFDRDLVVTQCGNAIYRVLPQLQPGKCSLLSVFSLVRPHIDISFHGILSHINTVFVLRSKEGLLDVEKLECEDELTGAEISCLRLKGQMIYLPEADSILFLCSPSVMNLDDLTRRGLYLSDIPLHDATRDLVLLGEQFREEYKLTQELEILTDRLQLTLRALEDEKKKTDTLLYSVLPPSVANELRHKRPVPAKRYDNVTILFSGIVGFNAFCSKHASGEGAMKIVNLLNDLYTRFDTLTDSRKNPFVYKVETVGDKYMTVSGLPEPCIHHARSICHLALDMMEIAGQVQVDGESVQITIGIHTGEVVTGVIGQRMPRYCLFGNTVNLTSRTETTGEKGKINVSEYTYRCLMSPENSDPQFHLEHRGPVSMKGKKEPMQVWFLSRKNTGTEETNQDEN
Kind of experiment: capture ELISA: IgG coated at 5 ug/mL, tween-treated (heme-free) WT rat sGC titrated, streptavidin-HRP, OD 450 nm; the axis gives the sGC concentration. The procedure:
(§1) To determine by ELISA the capacity of individual IgGs to discriminate the apo (heme free) version of wt rat sGC from the heme-loaded version, 5 μg/mL of each individual IgG were coated in Nunc® maxisorp 96-well plates overnight at 4° C. After a minimum 16 hours adsorption period, coated maxisorp plates were blocked with PBS-3% skimmed milk (v/v) prior to the addition of purified rat wt sGC proteins previously treated with 0.5% (v/v) tween to remove the heme group, or not-treated thus preserving heme group. Successful entrapment of heme free or heme-loaded wt rat sGC molecules by reformatted IgG molecules was detected with streptavidin-HRP.
For orientation: ELISA stands for enzyme-linked immunosorbent assay.

Experiment [5] addresses T1, WT rat sGC heme free (tween treated). Kind of experiment: SPR.
Experiment [6] shares this target. The experiment can be described thus: capture ELISA: IgG coated at 5 ug/mL, tween-treated (heme-free) WT rat sGC titrated, streptavidin-HRP, OD 450 nm; the axis gives the sGC concentration. The method, then: as §1
This is another data set of the same source.

Like-named read-outs stand apart in the source and are kept apart here.

Chain of Human apo-sGC (H105F) (human) (Q02108 whole entry, stated change not applied): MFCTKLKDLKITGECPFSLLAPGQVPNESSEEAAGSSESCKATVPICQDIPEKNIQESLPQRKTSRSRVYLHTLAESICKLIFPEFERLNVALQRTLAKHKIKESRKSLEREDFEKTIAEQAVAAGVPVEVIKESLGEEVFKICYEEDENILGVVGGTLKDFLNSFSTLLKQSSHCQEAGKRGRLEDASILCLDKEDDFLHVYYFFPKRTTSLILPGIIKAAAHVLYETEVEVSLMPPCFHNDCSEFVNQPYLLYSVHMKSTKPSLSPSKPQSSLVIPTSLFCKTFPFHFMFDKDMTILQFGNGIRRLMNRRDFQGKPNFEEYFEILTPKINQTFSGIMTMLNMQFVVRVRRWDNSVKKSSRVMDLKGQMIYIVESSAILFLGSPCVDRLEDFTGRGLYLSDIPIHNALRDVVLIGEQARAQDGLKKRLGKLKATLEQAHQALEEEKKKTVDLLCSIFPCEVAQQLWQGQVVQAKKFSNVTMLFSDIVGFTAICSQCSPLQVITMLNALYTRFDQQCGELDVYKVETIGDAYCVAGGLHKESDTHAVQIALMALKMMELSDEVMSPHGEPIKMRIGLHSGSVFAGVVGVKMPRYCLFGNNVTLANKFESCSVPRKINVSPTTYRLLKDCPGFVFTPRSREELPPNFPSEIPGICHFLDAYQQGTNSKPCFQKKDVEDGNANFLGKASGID

B1: TPP16284 (antibody, human IgG1, lambda, V domains shown)
VH: EVQLLESGGGLVQPGGSLRLSCAASGFTFSSYAMSWVRQAPGKGLEWVSGVSWNGSRTHYADSVKGRFTISRDNSKNTLYLQMNSLRAEDTAVYYCARERLGKWYFDLWGRGTLVTVSS
VL: QSVLTQPPSASGTPGQRVTISCSGSSSNIGNNAVNWYQQLPGTAPKLLIYGNSNRPSGVPDRFSGSKSGTSASLAISGLRSEDEADYYCQSYDSSLSGVFGGGTKLTVLG
For B1, the Kd (commonly a measure of binding affinity in units of concentration) was 67 nM in experiment [1] and 146 nM in experiment [2]. The concentration giving a half-maximal response (EC50 (read off the curve)) (as a rule, the concentration that produces a half-maximal response) in experiment [3] was determined as 70 nM.

B2: TPP15715 (antibody, human IgG1, lambda, V domains shown)
VH: EVQLLESGGGLVQPGGSLRLSCAASGFTFSNYAMSWVRQAPGKGLEWVSAISGSGGSTFYADSVKGRFTISRDNSKNTLYLQMNSLRAEDTAVYYCATDGTDAFDIWGQGTLVTVSS
VL: QSVLTQPPSASGTPGQRVTISCTGSSSNIGAGYDVHWYQQLPGTAPKLLIYENDRRPSGVPDRFSGSKSGTSASLAISGLRSEDEADYYCAAWDDSLNGPLFGGGTKLTVLG
notes: also called 5H10; TPP15715_5H10
Take B2: the “EC50 (read off the curve)” value in experiment [4] was approximately 20 nM; in experiment [6], approximately 50 nM. In experiment [5], this molecule came in with a Kd of 50 nM.
